Laboratory results reported in patent US20160347802A1.

B1: human Netrin-G1, AVEXIS protein (ligand, UniProt Q9Y2I2 29-510, looked up, not shown: small tags and cut ends)
chain: HYDLCKTQIYTEEGKVWDYMACQPESTDMTKYLKVKLDPPDITCGDPPETFCAMGNPYMCNNECDASTPELAHPPELMFDFEGRHPSTFWQSATWKEYPKPLQVNITLSWSKTIELTDNIVITFESGRPDQMILEKSLDYGRTWQPYQYYATDCLDAFHMDPKSVKDLSQHTVLEIICTEEYSTGYTTNSKIIHFEIKDRFAFFAGPRLRNMASLYGQLDTTKKLRDFFTVTDLRIRLLRPAVGEIFVDELHLARYFYAISDIKVRGRCKCNLHATVCVYDNSKLTCECEHNTTGPDCGKCKKNYQGRPWSPGSYLPIPKGTANTCIPSISSIGNCECFGHSNRCSYIDLLNTVICVSCKHNTRGQHCELCRLGYFRNASAQLDDENVCIECYCNPLGSIHDRCNGSGFCECKTGTTGPKCDECLPGNSWHYGCQPNVCDNELLHCQNGGTCHNNVRCLCPAAYTGILCEKLRCEEAGSCGS
B2: human DRAXIN, AVEXIS prey or bait protein, Q8NBI3 26-349 (ligand)
chain: GALAPGTPARNLPENHIDLPGPALWTPQASHHRRRGPGKKEWGPGLPSQAQDGAVVTATRQASRLPEAEGLLPEQSPAGLLQDKDLLLGLALPYPEKENRPPGWERTRKRSREHKRRRDRLRLHQGRALVRGPSSLMKKAELSEAQVLDAAMEESSTSLAPTMFFLTTFEAAPATEESLILPVTSLRPQQAQPRSDGEVMPTLDMALFDWTDYEDLKPDGWPSAKKKEKHRGKLSSDGNETSPAEGEPCDHHQDCLPGTCCDLREHLCTPHNRGLNNKCFDDCMCVEGLRCYAKFHRNRRVTRRKGRCVEPETANGDQGSFINV
B3: human DRAXIN, AVEXIS prey or bait protein (ligand)
chain: B2 chain
B4: human Netrin-4, AVEXIS protein (ligand, UniProt Q9HB63 19-628, looked up, not shown: small tags and cut ends)
chain: GLSGVAGVSSRCEKACNPRMGNLALGRKLWADTTCGQNATELYCFYSENTDLTCRQPKCDKCNAAYPHLAHLPSAMADSSFRFPRTWWQSAEDVHREKIQLDLEAEFYFTHLIVMFKSPRPAAMVLDRSQDFGKTWKPYKYFATNCSATFGLEDDVVKKGAICTSKYSSPFPCTGGEVIFKALSPPYDTENPYSAKVQEQLKITNLRVQLLKRQSCPCQRNDLNEEPQHFTHYAIYDFIVKGSCFCNGHADQCIPVHGFRPVKAPGTFHMVHGKCMCKHNTAGSHCQHCAPLYNDRPWEAADGKTGAPNECRTCKCNGHADTCHFDVNVWEASGNRSGGVCDDCQHNTEGQYCQRCKPGFYRDLRRPFSAPDACKPCSCHPVGSAVLPANSVTFCDPSNGDCPCKPGVAGRRCDRCMVGYWGFGDYGCRPCDCAGSCDPITGDCISSHTDIDWYHEVPDFRPVHNKSEPAWEWEDAQGFSALLHSGKCECKEQTLGNAKAFCGMKYSYVLKIKILSAHDKGTHVEVNVKIKKVLKSTKLKIFRGKRTLYPESWTDRGCTCPILNPGLEYLVAGHEDIRTGKLIVNMKSFVQHWKPSLGRKVMDILKRECK
B5: human Netrin-G2, AVEXIS protein (ligand, UniProt Q96CW9 18-507, looked up, not shown: small tags and cut ends)
chain: DYDICKSWVTTDEGPTWEFYACQPKVMRLKDYVKVKVEPSGITCGDPPERFCSHENPYLCSNECDASNPDLAHPPRLMFDKEEEGLATYWQSITWSRYPSPLEANITLSWNKTVELTDDVVMTFEYGRPTVMVLEKSLDNGRTWQPYQFYAEDCMEAFGMSARRARDMSSSSAHRVLCTEEYSRWAGSKKEKHVRFEVRDRFAIFAGPDLRNMDNLYTRLESAKGLKEFFTLTDLRMRLLRPALGGTYVQRENLYKYFYAISNIEVIGRCKCNLHANLCSMREGSLQCECEHNTTGPDCGKCKKNFRTRSWRAGSYLPLPHGSPNACATAGSFGNCECYGHSNRCSYIDFLNVVTCVSCKHNTRGQHCQHCRLGYYRNGSAELDDENVCIECNCNQIGSVHDRCNETGFCECREGAAGPKCDDCLPTHYWRQGCYPNVCDDDQLLCQNGGTCLQNQRCACPRGYTGVRCEQPRCDPADDDGGLDCDRAPG

Experiments:
[1] = target: biotinylated recombinant human DCC (human) (UniProt P43146); test: AVEXIS, prey on bait DCC; white = No binding
[2] = target: T1, human DRAXIN, AVEXIS prey or bait protein (human), Q8NBI3; test: AVEXIS, prey on bait DRAXIN; white = No binding; conditions: remark: other sources report otherwise
T1 chain: B2 chain

[3] = target: T1, human DRAXIN, AVEXIS prey or bait …; test: AVEXIS, prey on bait hDRAXIN, lower value; white = No binding; conditions: remark: other sources report otherwise
[4] = target: T1, human DRAXIN, AVEXIS prey or bait …; test: AVEXIS, prey on bait hDRAXIN, upper value; white = No binding; conditions: remark: other sources report otherwise

Binder | A486nm [1] | also measured
EVMPTLDMALFDWTDYEDLKP (peptide, not shown: small tags and cut ends) [human DRAXIN 21 amino acid Netrin binding fragment, AVEXIS prey or bait protein] | 0.06 | 
B1 | 0.063 | 
B2 |  | A486nm [2]: 0.062; A486nm [3]: 0.057; A486nm [4]: 0.054
B3 | 0.072 | 
B4 | 0.065 | 
B5 | 0.065 | 
